In PMC4018323:

Molecular target: GOLPH3 (endogenous) (human (endogenous in HeLa)) (UniProt Q9H4A6)
Assay: co-IP
Settings: remark: other sources report otherwise

Sequence of GOLPH3 (endogenous) (human (endogenous in HeLa)) (Q9H4A6 whole entry): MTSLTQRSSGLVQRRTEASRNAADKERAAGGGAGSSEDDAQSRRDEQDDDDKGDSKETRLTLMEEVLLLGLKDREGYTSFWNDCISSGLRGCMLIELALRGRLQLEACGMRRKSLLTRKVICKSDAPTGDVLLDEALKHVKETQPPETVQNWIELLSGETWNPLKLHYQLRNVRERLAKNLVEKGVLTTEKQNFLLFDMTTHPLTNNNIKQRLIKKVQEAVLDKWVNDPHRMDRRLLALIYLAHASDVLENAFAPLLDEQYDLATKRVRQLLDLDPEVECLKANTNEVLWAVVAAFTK

MYO18A (endogenous), Q92614 1-2054
fold increase in association after CPT versus DMSO control: 3.7 fold
